Data: article PMC7954794, “Protein context shapes the specificity of SH3 domain-mediated interactions in vivo” (Nature Communications, 2021)

B1: S. cerevisiae Abp1 (full length; SH3 domain 535-592 mutated) / Hua2 (parent)
chain 1: MALEPIDYTTHSREIDAEYLKIVRGSDPDTTWLIISPNAKKEYEPESTGSSFHDFLQLFDETKVQYGLARVSPPGSDVEKIIIIGWCPDSAPLKTRASFAANFAAVANNLFKGYHVQVTARDEDDLDENELLMKISNAAGARYSIQTSSKQQGKASTPPVKKSFTPSKSPAPVSKKEPVKTPSPAPAAKISSRVNDNNDDDDWNEPELKERDFDQAPLKPNQSSYKPIGKIDLQKVIAEEKAKEDPRLVQKPTAAGSKIDPSSDIANLKNESKLKRDSEFNSFLGTTKPPSMTESSLKNDDDKVIKGFRNEKSPAQLWAERKAKQNSGNAETKAEAPKPEVPEDEPEGEPDVKDLKSKFEGLAASEKEEEEMENKFAPPPKKSEPTIISPKPFSKPQEPVKAEEAEQPKTDYKKIGNPLPGMHIEADNEEEPEENDDDWDDDEDEAAQPPLPSRNVASGAPVQKEEPEQEEIAPSLPSRNSIPAPKQEEAPEQAPEEEIEEEAEEAAPQLPSRSSAAPPPPPRRATPEKKPKENPWATAEYDYDAAEDNELTFVENDKIINIEFVDDDWWLGELEKDGSKGLFPSNYVSLGN
chain 2: MQQTKFGKMYLDHDSVVEYSEDEIVEADRITLGYKKRLSMIENQMRHLLEDFSLDVQQIEPILADLQKYYDAFLQLLQKRNKSLQCKRSTHQPVPSPMNSQTSTNAKVNLSGKLMKFQLNSVQKFDEENILRILQNKIEFEHYFQIDKGKKQKVLLLAVYQCLNGPTRLHKVLNIEGIIHNNSIRTILGKQVSSSKWTVFLYDVKLVLLAHRQDVPNLETSKMIVRYGDLFPCALYFKDHTAY

Variants of: B1
Assay: DHFR protein-fragment complementation in yeast (Abp1-DHFR F[1,2] x partner-DHFR F[3]), deep mutational scanning, second methotrexate selection vs reference
Conditions: with Hua2; S. cerevisiae, DHFR-PCA selection in liquid with methotrexate at 30 C, two 72 h selections (the score uses the second); reference = the pre-selection culture; not an affinity; value at the no-binding floor (a bound); scale: DMS score: mean over two replicates of log2(f_test/f_ref + 0.5)/ln 2, minus the synonymous-codon median

Screen value: each site, then its substitutions
chain 1 E550: S < -3.06; W < -3.06; P < -3.06; R -3; T -3.03
chain 1 V588: Q -3.02; H < -3.06; Y < -3.06; K -3.04; P < -3.06; R < -3.06; N < -3.06; S < -3.06
chain 1 I560: P < -3.06
chain 1 T552: L -3.04; W < -3.06
chain 1 W570: M -3.02; T < -3.06; D < -3.06; I < -3.06; A < -3.06; K < -3.06; P < -3.06; E -3.03; Q -3.01; H < -3.06; V -3.02
chain 1 L590: G -3.05; N < -3.06; D < -3.06
chain 1 F553: D < -3.06; E < -3.06; P < -3.06; T -3.01; N < -3.06; H < -3.06; W < -3.06; K < -3.06; A -3.03; Q < -3.06; R < -3.06; G -3.04
chain 1 E563: P -3.04
chain 1 G578: P < -3.06; I < -3.06; W -3.01
chain 1 L574: F -3.03; E < -3.06; D < -3.06; W -3.03
chain 1 W569: S -2.99; A < -3.06; D -3.03; H -3.05; N < -3.06; I -2.99; P < -3.06; T < -3.06
chain 1 I559: G -3.05; Q < -3.06; C -3.01; R -3.03; E -3; W < -3.06; K < -3.06; A < -3.06; P < -3.06; D -3.04; H < -3.06
chain 1 K580: P -2.98
chain 1 L551: W < -3.06; Y < -3.06; K < -3.06; G < -3.06; A -3.04; D < -3.06; S < -3.06; H -2.98
chain 1 S585: L -2.99; F -2.99; Y < -3.06; D -3.03; W -3.01
chain 1 I562: Q < -3.06; G -3.04; P < -3.06; Y -3.03; R < -3.06; E < -3.06; A < -3.06; K -3.03; D < -3.06; H < -3.06
chain 1 G572: Q < -3.06; D < -3.06; Y < -3.06; K < -3.06; P < -3.06; T -3.04; L -3.04; M < -3.06; I < -3.06; C < -3.06; S < -3.06; H < -3.06; A -3.02; F < -3.06
chain 1 Y541: P < -3.06
chain 1 L582: D -2.99; E -3.03; G -3; A -3.04; T -3.01
chain 1 E573: P < -3.06
chain 1 Y543: M < -3.06; P < -3.06; L -3.02; G -3.04; A < -3.06; R -3.05; I < -3.06; T -3.01; V < -3.06; E < -3.06
chain 1 F583: D < -3.06; P < -3.06; N < -3.06; R -3.02; W < -3.06; H < -3.06; G < -3.06; Q < -3.06; E < -3.06; M < -3.06; T < -3.06; A < -3.06; K < -3.06
chain 1 P584: C -3.02; I < -3.06; V < -3.06; D < -3.06; K < -3.06; E < -3.06; F -3; M < -3.06; W -3.02; G < -3.06; Q -3.01
chain 1 G581: K -3.01; W < -3.06; T < -3.06; M < -3.06; I < -3.06; E -3.02; Y < -3.06; N < -3.06; P < -3.06; L < -3.06; H < -3.06; F -3.01; Q < -3.06
chain 1 N561: F < -3.06; W < -3.06; V -3.02; L -3.02; P < -3.06
chain 1 V554: P -3.04
